Read-outs that look alike come from different tables or passages of the source.
Legend:
Test in all cases: SEC-MALS
[1] = biological target: QatB (untagged, co-expressed with His6-QatC) (Escherichia coli NCTC9009)
[2] = biological target: His6-QatC (co-expressed with QatB) (Escherichia coli NCTC9009)
[3] = biological target: His6-QatC (co-expressed with QatB) (Escherichia coli NCTC9009); remark: listed apart in the source

Row | Substance | stoichiometry N [1] | stoichiometry N [2] | stoichiometry N [3]
1 | QatD (untagged, co-expressed) (enzyme) | 1 |  | 
2 | QatB (untagged, co-expressed with His6-QatC) (natural protein) |  | 1 | 1

From doi:10.1101/2025.11.03.686418
